{
  "source": "paper PMC3197213",
  "origin": "cited, not measured here",
  "biological_target": "syntaxin-1 SNARE motif (Rattus norvegicus) (UniProt P32851)",
  "sequence (P32851 191-253)": "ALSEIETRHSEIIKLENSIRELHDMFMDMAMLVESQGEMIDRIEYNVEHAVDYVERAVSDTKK",
  "data": [
    {"substance": "Munc13-1 MUN domain (from UniProt Q62768)", "values": [
      {"measurement": "Kd", "value": 46, "unit": "µM"}
    ]}
  ]
}
